Read-outs that look alike come from different tables or passages of the source.
B1: Strep-tagged GapA lacking SR1P (enzyme, B. subtilis, UniProt P09124 1-335, looked up)
chain: MAVKVGINGFGRIGRNVFRAALNNPEVEVVAVNDLTDANMLAHLLQYDSVHGKLDAEVSVDGNNLVVNGKTIEVSAERDPAKLSWGKQGVEIVVESTGFFTKRADAAKHLEAGAKKVIISAPANEEDITIVMGVNEDKYDAANHDVISNASCTTNCLAPFAKVLNDKFGIKRGMMTTVHSYTNDQQILDLPHKDYRRARAAAENIIPTSTGAAKAVSLVLPELKGKLNGGAMRVPTPNVSLVDLVAELNQEVTAEEVNAALKEAAEGDLKGILGYSEEPLVSGDYNGNKNSSTIDALSTMVMEGSMVKVISWYDNESGYSNRVVDLAAYIAKKGL
B2: untagged GapA (enzyme, UniProt P09124 1-335, looked up)
chain: B1 chain
B3: GapA_(Strep)/SR1P (Strep-tagged GapA carrying SR1P) (complex)
chain 1: B1 chain
chain 2: MGTIVCQDCNEAIHYFEDEKVTTLYGTCCGQCQCPVDEE
B4: RNase J1 (enzyme)
chain: not shown

Columns and labels:
His-tagged RNase J1 [1] = molecular target: T1, His-tagged RNase J1 (B. subtilis, UniProt Q45493 1-555); assay: far-Western, overlay or dot blot
His-tagged RNase J1 [2] = molecular target: T1, His-tagged RNase J1; assay: far-Western, overlay or dot blot; remark: listed apart in the source
[3] = molecular target: B3; assay: pull-down
[4] = molecular target: B1; assay: pull-down

T1 sequence (Q45493 whole entry): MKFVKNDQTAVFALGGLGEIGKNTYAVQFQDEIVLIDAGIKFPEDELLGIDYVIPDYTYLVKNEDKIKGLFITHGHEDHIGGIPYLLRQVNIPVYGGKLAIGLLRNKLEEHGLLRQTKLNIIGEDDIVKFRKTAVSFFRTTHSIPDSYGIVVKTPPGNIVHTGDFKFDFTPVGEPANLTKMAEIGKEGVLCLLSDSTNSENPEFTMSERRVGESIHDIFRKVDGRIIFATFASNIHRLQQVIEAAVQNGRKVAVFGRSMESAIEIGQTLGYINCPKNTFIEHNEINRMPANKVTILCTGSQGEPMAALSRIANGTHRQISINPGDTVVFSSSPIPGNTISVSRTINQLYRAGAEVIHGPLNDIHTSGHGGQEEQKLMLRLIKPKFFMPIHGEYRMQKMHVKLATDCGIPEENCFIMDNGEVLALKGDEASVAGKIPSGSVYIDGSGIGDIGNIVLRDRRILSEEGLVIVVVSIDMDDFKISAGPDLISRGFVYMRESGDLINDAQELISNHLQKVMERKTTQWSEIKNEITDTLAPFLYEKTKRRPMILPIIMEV

Binder: B1
binding result (His-tagged RNase J1 [1]): binds

Binder: B2
binding result (His-tagged RNase J1 [1]): binds

Binder: B3
binding result (His-tagged RNase J1 [2]): binds

Binder: B4
GapA/SR1P-RNase J1 ratio [3]: 80 GapA/SR1P per RNase J1
GapA-RNase J1 ratio [4]: ~200 GapA per RNase J1
